Key:
[1] = biological target: HBsAg of control HBsAg-positive serum (hepatitis B virus); test: sandwich RIA, PE1-1 solid-adsorbed and ZM1-2 125I-labelled; the control itself
HBsAg subtype ayw [2] = biological target: T1, HBsAg subtype ayw (hepatitis B virus, UniProt P03138); test: inhibition ELISA, soluble HBsAg ayw pre-incubated with antibody, HBsAg-coated well, 37 C
HBsAg subtype ayw [3] = biological target: T1, HBsAg subtype ayw; test: solid phase RIA, 125I-labelled antibody on solid adsorbed HBsAg ayw, room temperature
[4] = biological target: serum-derived variant HBsAg of Patient #2 (hepatitis B virus); test: sandwich RIA, PE1-1 solid-adsorbed and ZM1-2 125I-labelled, patient serum HBsAg
[5] = biological target: serum-derived variant HBsAg, sample 'Patient #3 (264)' (hepatitis B virus); test: as above
[6] = biological target: serum-derived variant HBsAg, sample 'Patient #4 (251)' (hepatitis B virus); test: as above
[7] = biological target: hepatitis B surface antigen (HBsAg), preparation and subtype not stated (hepatitis B virus); test: AUSAB radioimmunoassay (Abbott), compared on a weight basis
[8] = biological target: HBsAg of control HBsAg-positive serum (hepatitis B virus); test: sandwich RIA, solid-adsorbed and 125I-labelled ZM1-2; the control itself
[9] = biological target: HBsAg in serum from a hepatitis B positive patient (hepatitis B virus)
[10] = biological target: serum-derived variant HBsAg of Patient #2 (hepatitis B virus); test: sandwich RIA, solid-adsorbed and 125I-labelled ZM1-2, patient serum HBsAg
[11] = biological target: serum-derived variant HBsAg, sample 'Patient #3 (264)' (hepatitis B virus); test: as above
[12] = biological target: serum-derived variant HBsAg, sample 'Patient #4 (251)' (hepatitis B virus); test: as above

B1: human monoclonal antibody PE1-1 (antibody, V domains shown)
VH: QVQLVESGGGVVQPGRSLRLSCAASGFTFSRYGMHWVRQAPGKGLEWVAVISYDGSNKWYADSVKGRFTISRDNSKNTLFLQMHSLRAADTGVYYCAKDQLYFGSQSPGHYWVQGTLVTVSS
VL: QSQLTQPPSVSVAPGQTARITCGGDNIGSKSVNWFQQKPGQAPVLVVYDDNERPSGISERFSGSNSGNTATLTISRVEAGDEADYYCQVWDSSSDHVVFGGGTKLTVL
relative reactivity (relative to control) [1]: 1 | Ka (HBsAg subtype ayw [2]): ~2e+09 M⁻¹ | Ka (HBsAg subtype ayw [3]): 3.6e+09 M⁻¹ | relative reactivity (relative to control) [4]: 0.07 | relative reactivity (relative to control) [5]: 0.173 | relative reactivity (relative to control) [6]: 0.024 | potency relative to the Bureau of Biologics reference hepatitis B immune globin [7]: 435 times | potency relative to the commercial hepatitis B immune globulin preparations [7]: > 200 times

B2: human monoclonal antibody ZM1-1 (antibody, V domains shown)
VH: EVQLVESGGGLVQPGGSLRLSCAASGFTFSRYDMYWVRQATGKGLEWVSAIGPTGDTYYADSVKGRFTISRENAKNSLYLTMNGLRAGDTAVYYCARDLELWGQGTLVTVSS
VL: DVVVTQSPLSLPVTLGQPASISCRSSLSLVDSDGNTYLNWFLQRPGQSPRRLIYQLSSRDSGVPDRFSGSGSGTDFTLKISRVEAEDVGVYYCMQGTHWPITFGQGTRLEIKR
Ka (HBsAg subtype ayw [2]): ~1e+08 M⁻¹ | Ka (HBsAg subtype ayw [3]): 5e+09 M⁻¹

B3: human monoclonal antibody ZM1-2 (antibody, V domains shown)
VH: QVQLQESGPGLVKAAETLSLTCTVSRGSFSDYFWNWFRQPAGKRLEWLGRVYTSGSVDYNPSLKSRVTVSVDTSKKQFSLRLSSVTVADTAVYYCARGLSGFDYWGQGALVTVSP
VL: DIQMTQSPSSVSASVGDRVTVTCRASQGISSWLAWYQQKPGKAPKLLIHAASSLQSGVPSRFIGSGSGTDFTLTITSLQAEDFATYYCQQADSLPFTFGGGTKVDFKR
relative reactivity (relative to control) [8]: 1 | Ka (HBsAg subtype ayw [2]): ~7e+08 M⁻¹ | Ka (HBsAg subtype ayw [3]): 1.5e+09 M⁻¹ | IC50 [9]: 0.076 µg/mL | relative reactivity (relative to control) [10]: 0.233 | relative reactivity (relative to control) [11]: 0.179 | relative reactivity (relative to control) [12]: 0.01
